Data: patent US9057727B2, “Screening methods using G-protein coupled receptors and related compositions” (The General Hospital Corporation, priority 2007, dated 2015)
Ends that are not written are not given here. Peptide text beside a SMILES is read from it.

What was measured:
[1] = biological target: T1, human PTHR, G protein-uncoupled conformation (R^0) (Homo sapiens, UniProt Q03431); experiment: Competition binding to R0 conformation of hPTHR (COS-7 membranes, GTPγS, 125I-PTH(1-34) tracer); conditions: for R0:RG: Table 5, fold weaker affinity for R0 than RG; for screen human PIR R0 (% parent): parent PTHrP(1-28)NH
T1 construct: expressed in transfected cells; host or cells: COS-7, transient (Fugene-6)
T1 sequence (Q03431 27-593): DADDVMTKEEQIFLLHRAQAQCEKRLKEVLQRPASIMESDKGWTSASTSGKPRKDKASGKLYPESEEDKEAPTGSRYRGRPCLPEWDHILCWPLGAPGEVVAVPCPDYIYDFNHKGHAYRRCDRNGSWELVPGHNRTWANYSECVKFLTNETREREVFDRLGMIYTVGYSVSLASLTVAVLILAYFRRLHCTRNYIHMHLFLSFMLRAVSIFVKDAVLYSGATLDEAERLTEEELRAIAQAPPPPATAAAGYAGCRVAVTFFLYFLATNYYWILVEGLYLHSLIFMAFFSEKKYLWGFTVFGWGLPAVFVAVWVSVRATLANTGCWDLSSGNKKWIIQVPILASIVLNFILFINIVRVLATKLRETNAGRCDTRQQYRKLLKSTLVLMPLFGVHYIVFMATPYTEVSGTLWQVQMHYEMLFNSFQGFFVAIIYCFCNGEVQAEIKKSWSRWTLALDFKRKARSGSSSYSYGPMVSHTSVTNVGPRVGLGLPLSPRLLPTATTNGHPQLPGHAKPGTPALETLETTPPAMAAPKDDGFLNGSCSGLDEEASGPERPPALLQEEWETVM
Protocol: Membranes were prepared from COS-7 cells transfected with the hPTHR alone. GTPγS ([…]) was added to the binding reactions so as to functionally uncouple receptor-heterotrimeric G protein complexes, thus enriching for the R^0 (and R) conformations, relative to RG.
Reactions contained a total membrane protein concentration of 20 to 100 μg/mL, and a total radioactivity concentration of approximately 150,000 cpm/ml. Unlabeled peptide ligands and/or GTPγS (Sigma-Aldrich Inc. St. Louis, Mo.) were added to the reactions as indicated.
Membranes, tracer radioligand, and various concentrations of unlabeled ligands and/or GTPγS were incubated in the wells for 90 minutes, following which, the reaction plates were processed by rapid vacuum filtration to separate bound from free radioligand, as described above. […] For both radioligands, the non-specific binding was determined in reactions containing a saturating concentration of the unlabeled analog of the radioligand. The specifically bound radioactivity was calculated as a percent of the radioactivity specifically bound in the absence of a competing ligand or GTPγS.
To assess the capacities of various unlabeled peptide ligands to bind to the G protein-uncoupled and G protein-coupled PTHR conformations (R^0 and RG, respectively), membranes were prepared from transiently transfected COS-7 cells and the following assay conditions.

[2] = biological target: T2, human PTHR, G protein-coupled conformation (RG) (Homo sapiens, UniProt Q03431); experiment: Competition binding to RG conformation of hPTHR (COS-7 membranes, GαsND, 125I-[Aib1,3,M]PTH(1-15) tracer); conditions: parent PTHrP(1-28)NH
T2 construct: expressed in transfected cells; host or cells: COS-7, transient (Fugene-6); membranes
T2 sequence (Q03431 27-593): T1 sequence (Q03431 27-593)

[3] = tested on: LLCPK1-B64 cells or SaOS-2 cells; experiment: cAMP screen of substituted PTHrP(1-28) analogs (% parent); assay type: cell-based; conditions: parent PTHrP(1-28)NH
Protocol: Alanine substitution at position 18, 22, 25 and 26 increased activity in at least one cell type. These positions were further substituted to various types of amino acids, and cAMP activity was analyzed in LLCPK1-B64 cells (FIG. 27C) or SaOS-2 cells (FIG. 27D). Cells were treated with analogs at 3×10^−9M in the presence of IBMX for 30 minutes at room temperature. Responses for each analog were normalized to the response for the parent (native) PTHrP(1-28) peptide. Alanine substitutions were A^15 to A^17 (SEQ ID NO:152-154), A^18 (SEQ ID NO:34), A^19 to A^21 (SEQ ID NO:155-157), A^22 (SEQ ID NO:39), A^23 to A^25 (SEQ ID NO:158-160), A^26 (SEQ ID NO:46), and A^27 to A^28 (SEQ ID NO:161-162). Substitutions at position 18 were A^18 (SEQ ID NO: 34), G^18 (SEQ ID NO:163), S^18 (SEQ ID NO:35), M^18 (SEQ ID NO:36), L^18 (SEQ ID NO:164), F^18 (SEQ ID NO:37), N^18 (SEQ ID NO:165), E^18 (SEQ ID NO:38), and K^18 (SEQ ID NO:166). Substitutions at position 22 were A^22 (SEQ ID NO:39), G^22 (SEQ ID NO:167), and S^22 to K^22 (SEQ ID NO:40-45). Substitutions at position 26 were A^26 (SEQ ID NO:46), G^26 (SEQ ID NO:168), S^26 (SEQ ID NO:47), L^26 (SEQ ID NO:169), N^26 (SEQ ID NO:48), W^26 to E^26 (SEQ ID NO:170-171), and K^26 to R^26 (SEQ ID NO:49-50). Substitutions at position 25 were G^25 to S^25 (SEQ ID NO:172-173), L^25 (SEQ ID NO:51), N^25 (SEQ ID NO:174), W^25 (SEQ ID NO:52), E^25 (SEQ ID NO:175), and K^25 to R^25 (SEQ ID NO:53-54). […]

Compound	R0:RG [1]	screen human PIR RG (% parent) [2]	screen human PIR R0 (% parent) [1]	screen cAMP (% parent) [3]
CSCC[C@H](NC(=O)[C@H](CC(C)C)NC(=O)[C@H](CCC(N)=O)NC(=O)[C@H](Cc1c[nH]cn1)NC(=O)[C@H](CCC(=O)O)NC(=O)[C@H](CO)NC(=O)[C@@H](NC(=O)[C@@H](N)CO)C(C)C)C(=O)N[C@@H](Cc1c[nH]cn1)C(=O)N[C@@H](CC(N)=O)C(=O)N[C@@H](CC(C)C)C(=O)NCC(=O)N[C@@H](CCCCN)C(=O)N[C@@H](Cc1c[nH]cn1)C(=O)N[C@@H](CC(C)C)C(=O)N[C@@H](CC(N)=O)C(=O)N[C@@H](CO)C(=O)N[C@@H](CCSC)C(=O)N[C@@H](CCC(=O)O)C(=O)N[C@@H](CCCNC(=N)N)C(=O)N[C@H](C(=O)N[C@@H](CCC(=O)O)C(=O)N[C@@H](Cc1c[nH]c2ccccc12)C(=O)N[C@@H](CC(C)C)C(=O)N[C@@H](CCCNC(=N)N)C(=O)N[C@@H](CCCCN)C(=O)N[C@@H](CCCCN)C(=O)N[C@@H](CC(C)C)C(=O)N[C@@H](CCC(N)=O)C(=O)N[C@@H](CC(=O)O)C(=O)N[C@H](C(=O)N[C@@H](Cc1c[nH]cn1)C(=O)N[C@@H](CC(N)=O)C(=O)N[C@@H](Cc1ccccc1)C(N)=O)C(C)C)C(C)C [[His^5]hPTH(1-34)NH2] (H-SVSEHQLMHNLGKHLNSMERVEWLRKKLQDVHNF-NH2; N-terminus assumed)	160	–	–	–
CSCC[C@H](NC(=O)[C@H](CC(C)C)NC(=O)[C@H](CCC(N)=O)NC(=O)[C@H](Cc1c[nH]cn1)NC(=O)[C@H](CCC(=O)O)NC(=O)[C@H](CO)NC(=O)[C@@H](NC(=O)[C@H](C)N)C(C)C)C(=O)N[C@@H](Cc1c[nH]cn1)C(=O)N[C@@H](CC(N)=O)C(=O)N[C@@H](CC(C)C)C(=O)NCC(=O)N[C@@H](CCCCN)C(=O)N[C@@H](Cc1c[nH]cn1)C(=O)N[C@@H](CC(C)C)C(=O)N[C@@H](C)C(=O)N[C@@H](CO)C(=O)N[C@H](C(=O)N[C@@H](CCC(=O)O)C(=O)N[C@@H](CCCNC(=N)N)C(=O)N[C@@H](CCSC)C(=O)N[C@@H](CCC(N)=O)C(=O)N[C@@H](Cc1c[nH]c2ccccc12)C(=O)N[C@@H](CC(C)C)C(=O)N[C@@H](CCCNC(=N)N)C(=O)N[C@@H](CCCCN)C(=O)N[C@@H](CCCCN)C(=O)N[C@@H](CC(C)C)C(=O)N[C@@H](CCC(N)=O)C(=O)N[C@@H](CC(=O)O)C(=O)N[C@H](C(=O)N[C@@H](Cc1c[nH]cn1)C(=O)N[C@@H](CC(N)=O)C(=O)N[C@@H](Cc1ccccc1)C(N)=O)C(C)C)C(C)C [[His^5]rPTH(1-34)NH2] (H-AVSEHQLMHNLGKHLASVERMQWLRKKLQDVHNF-NH2; N-terminus assumed)	138	–	–	–
CC[C@H](C)[C@H](NC(=O)[C@H](CCC(=O)O)NC(=O)[C@H](CO)NC(=O)[C@@H](NC(=O)[C@H](C)N)C(C)C)C(=O)N[C@@H](CCC(N)=O)C(=O)N[C@@H](CC(C)C)C(=O)N[C@@H](CCSC)C(=O)N[C@@H](Cc1c[nH]cn1)C(=O)N[C@@H](CC(N)=O)C(=O)N[C@@H](CC(C)C)C(=O)NCC(=O)N[C@@H](CCCCN)C(=O)N[C@@H](Cc1c[nH]cn1)C(=O)N[C@@H](CC(C)C)C(=O)N[C@@H](C)C(=O)N[C@@H](CO)C(=O)N[C@H](C(=O)N[C@@H](CCC(=O)O)C(=O)N[C@@H](CCCNC(=N)N)C(=O)N[C@@H](CCSC)C(=O)N[C@@H](CCC(N)=O)C(=O)N[C@@H](Cc1c[nH]c2ccccc12)C(=O)N[C@@H](CC(C)C)C(=O)N[C@@H](CCCNC(=N)N)C(=O)N[C@@H](CCCCN)C(=O)N[C@@H](CCCCN)C(=O)N[C@@H](CC(C)C)C(=O)N[C@@H](CCC(N)=O)C(=O)N[C@@H](CC(=O)O)C(=O)N[C@H](C(=O)N[C@@H](Cc1c[nH]cn1)C(=O)N[C@@H](CC(N)=O)C(=O)N[C@@H](Cc1ccccc1)C(N)=O)C(C)C)C(C)C [rPTH(1-34)NH2, reference compound]	7	–	–	–
A18,22,26-PTHrP(1-28) (AVSEHQLLHDKGKSIQDARRRAFLHALI-NH2) [A18, 22, 26-PTHrP(1-28)NH]	–	167 % parent	160 % parent	343 % parent
A18,26,L22-PTHrP(1-28) (AVSEHQLLHDKGKSIQDARRRLFLHALI-NH2) [A18, 26, L22-PTHrP(1-28)NH]	–	163 % parent	133 % parent	252 % parent
A18,26,N22-PTHrP(1-28) (AVSEHQLLHDKGKSIQDARRRNFLHALI-NH2) [A18, 26, N22-PTHrP(1-28)NH]	–	161 % parent	136 % parent	265 % parent
A18,26,S22-PTHrP(1-28) (AVSEHQLLHDKGKSIQDARRRSFLHALI-NH2) [A18, 26, S22-PTHrP(1-28)NH]	–	148 % parent	133 % parent	229 % parent
A18,26,W22-PTHrP(1-28) (AVSEHQLLHDKGKSIQDARRRWFLHALI-NH2) [A18, 26, W22-PTHrP(1-28)NH]	–	120 % parent	126 % parent	188 % parent
A18,L22,K26-PTHrP(1-28) (AVSEHQLLHDKGKSIQDARRRLFLHKLI-NH2) [A18, L22, K26-PTHrP(1-28)NH]	–	177 % parent	160 % parent	350 % parent
A18,N22,K26-PTHrP(1-28) (AVSEHQLLHDKGKSIQDARRRNFLHKLI-NH2) [A18, N22, K26-PTHrP(1-28)NH]	–	172 % parent	139 % parent	326 % parent
A18,W22,K26-PTHrP(1-28) (AVSEHQLLHDKGKSIQDARRRWFLHKLI-NH2) [A18, W22, K26-PTHrP(1-28)NH]	–	115 % parent	136 % parent	267 % parent
E18,K22,26-PTHrP(1-28) (AVSEHQLLHDKGKSIQDERRRKFLHKLI-NH2) [E18, K22, 26-PTHrP(1-28)NH]	–	208 % parent	119.8 % parent	374 % parent
E18,K22,A26-PTHrP(1-28) (AVSEHQLLHDKGKSIQDERRRKFLHALI-NH2) [E18, K22, A26-PTHrP(1-28)NH]	–	192 % parent	106.1 % parent	315 % parent
E18,L22,A26-PTHrP(1-28) (AVSEHQLLHDKGKSIQDERRRLFLHALI-NH2) [E18, L22, A26-PTHrP(1-28)NH]	–	125 % parent	52.5 % parent	139 % parent
